Data reported in publication PMC3617563 (Biochemistry, 2012).
Positions count from the first letter of the chain named. In names and notes the source's numbering stands. Where two headings read alike, the source gives them in different places. Values belong to the binder of their own block, whether it stands above or below them.

Legend:
[1] = target: T1, native ubiquitin (monoubiquitin) (UniProt P0CG48 1-76); test: stopped-flow fluorescence
[2] = target: T2, Ub-AMC (ubiquitin-7-amino-4-methylcoumarin) (human, UniProt P0CG48 1-75, 7-amino-4-methylcoumarin (AMC) on the C-terminal glycine); test: stopped-flow fluorescence
[3] = target: T2, Ub-AMC …; test: stopped-flow fluorescence; remark: listed apart in the source
[4] = target: T2, Ub-AMC …; test: other fluorescence titration
[5] = target: T1, native ubiquitin (monoubiquitin); test: stopped-flow fluorescence; remark: listed apart in the source

koff [1]: 2.64 ± 0.56 s⁻¹
kon [1]: 400000 ± 10000 M⁻¹ s⁻¹
B1: wild-type USP2 catalytic core (human ubiquitin-specific protease 2, amino acids 259 to 605) (domain or fragment, UniProt O75604 259-605, looked up)
chain: NSKSAQGLAGLRNLGNTCFMNSILQCLSNTRELRDYCLQRLYMRDLHHGSNAHTALVEEFAKLIQTIWTSSPNDVVSPSEFKTQIQRYAPRFVGYNQQDAQEFLRFLLDGLHNEVNRVTLRPKSNPENLDHLPDDEKGRQMWRKYLEREDSRIGDLFVGQLKSSLTCTDCGYCSTVFDPFWDLSLPIAKRGYPEVTLMDCMRLFTKEDVLDGDEKPTCCRCRGRKRCIKKFSIQRFPKILVLHLKRFSESRIRTSKLTTFVNFPLRDLDLREFASENTNHAVYNLYAVSNHSGTTMGGHYTAYCRSPGTGEWHTFNDSSVTPMSSSQVRTSDAYLLFYELASPPSRM

Kd [2]: 5.5 µM
koff [3]: 1.82 ± 0.17 s⁻¹
kon [3]: 330000 ± 20000 M⁻¹ s⁻¹
Kd [4]: 2.9 ± 0.6 µM
koff [5]: 7.54 ± 2.6 s⁻¹
kon [5]: 480000 ± 50000 M⁻¹ s⁻¹
B2: C276A USP2 catalytic core (inactive active-site mutant) (domain or fragment, human, UniProt O75604 259-605, looked up)
chain: B1 chain with C18A
